B1: Lon protease (LONP1) (enzyme)
chain: FWEASSRGGGAFSGGEDASEGGAEEGAGGAGGSAGAGEGPVITALTPMTIPDVFPHLPLIAITRNPVFPRFIKIIEVKNKKLVELLRRKVRLAQPYVGVFLKRDDSNESDVVESLDEIYHTGTFAQIHEMQDLGDKLRMIVMGHRRVHISRQLEVEPEEPEAENKHKPRRKSKRGKKEAEDELSARHPAELAMEPTPELPAEVLMVEVENVVHEDFQVTEEVKALTAEIVKTIRDIIALNPLYRESVLQMMQAGQRVVDNPIYLSDMGAALTGAESHELQDVLEETNIPKRLYKALSLLKKEFELSKLQQRLGREVEEKIKQTHRKYLLQEQLKIIKKELGLEKDDKDAIEEKFRERLKELVVPKHVMDVVDEELSKLGLLDNHSSEFNVTRNYLDWLTSIPWGKYSNENLDLARAQAVLEEDHYGMEDVKKRILEFIAVSQLRGSTQGKILCFYGPPGVGKTSIARSIARALNREYFRFSVGGMTDVAEIKGHRRTYVGAMPGKIIQCLKKTKTENPLILIDEVDKIGRGYQGDPSSALLELLDPEQNANFLDHYLDVPVDLSKVLFICTANVTDTIPEPLRDRMEMINVSGYVAQEKLAIAERYLVPQARALCGLDESKAKLSSDVLTLLIKQYCRESGVRNLQKQVEKVLRKSAYKIVSGEAESVEVTPENLQDFVGKPVFTVERMYDVTPPGVVMGLAWTAMGGSTLFVETSLRRPQDKDAKGDKDGSLEVTGQLGEVMKESARIAYTFARAFLMQHAPANDYLVTSHIHLHVPEGATPKDGPSAGCTIVTALLSLAMGRPVRQNLAMTGEVSLTGKILPVGGIKEKTIAAKRAGVTCIVLPAENKKDFYDLAAFITEGLEVHFVEHYREIFDIAFPDEQAEALAVER
B2: Mitochondrial import receptor subunit TOM40 (TOMM40) (natural protein)
chain: MGNVLAASSPPAGPPPPPAPALVGLPPPPPSPPGFTLPPLGGSLGAGTSTSRSSERTPGAATASASGAAEDGACGCLPNPGTFEECHRKCKELFPIQMEGVKLTVNKGLSNHFQVNHTVALSTIGESNYHFGVTYVGTKQLSPTEAFPVLVGDMDNSGSLNAQVIHQLGPGLRSKMAIQTQQSKFVNWQVDGEYRGSDFTAAVTLGNPDVLVGSGILVAHYLQSITPCLALGGELVYHRRPGEEGTVMSLAGKYTLNNWLATVTLGQAGMHATYYHKASDQLQVGVEFEASTRMQDTSVSFGYQLDLPKANLLFKGSVDSNWIVGATLEKKLPPLPLTLALGAFLNHRKNKFQCGFGLTIG

molecular target: Apolipoprotein E4 (APOE4), overexpressed in transfected Huh7 cells (human) (UniProt P02649); test: co-IP; APOE precipitated with anti-APOE antibody (sc-13521) and Protein G Sepharose, overnight at 4 °C, from lysates of APOE3- and APOE4-transfected Huh7 cells; Western blot, target bands normalised to the APOE signal
Sequence of UniProt P02649 (P02649 19-317): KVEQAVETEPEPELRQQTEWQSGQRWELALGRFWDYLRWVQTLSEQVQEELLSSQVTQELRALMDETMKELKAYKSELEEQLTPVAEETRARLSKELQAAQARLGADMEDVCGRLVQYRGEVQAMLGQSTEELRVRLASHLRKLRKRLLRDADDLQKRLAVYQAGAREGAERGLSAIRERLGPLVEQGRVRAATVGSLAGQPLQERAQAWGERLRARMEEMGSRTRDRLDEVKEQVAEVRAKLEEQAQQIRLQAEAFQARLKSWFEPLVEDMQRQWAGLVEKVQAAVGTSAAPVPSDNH

Row | Molecule | fold change of the target/APOE band against APOE3-transfected cells
1 | Voltage-dependent anion-selective channel 1 (VDAC1) (from UniProt P21796 1-283) (natural protein) | 1.2 fold
2 | B1 | 2.11 fold
3 | B2 | 1.29 fold

— publication PMC11476584
